4 molecules from patent US8192946B2, “Assays for detecting pregnancy-associated glycoproteins” (The Curators of The University of Missouri, priority 2008, dated 2012) can be followed below.

Square brackets hold non-standard residues; d marks the D form. Peptide text beside a SMILES is read from it. * marks the point of attachment. Sta = CC(C)C[C@H](N)[C@@H](O)CC(=O)O; Isovaleryl = CC(C)CC(=O)*

Common to all, as to format: biochemical
Assay [1] relates to native bovine PAG (preparation 7-10). Briefly: inhibition of native PAG peptidase activity by pepstatin A. The note with it: parallel samples in pH 3.5, 4 and 4.5 buffers; FIG. 1. The text has this: FIG. 1. pH profile of the activity of native bovine PAG (preparation 7-10) against a fluorescent peptidase substrate. The PAG was isolated by pepstatin affinity chromatography and further purified by anion exchange chromatography. Identical amounts of the 7-10 preparation were mixed with a fluorescent peptidase substrate in the presence of buffers adjusted to different pH levels. The extent of fluorescent product release is indicated on the y-axis and the pH conditions of each reaction are indicated on the x-axis. Parallel samples in the pH 3.5, 4 and 4.5 buffers were treated with pepstatin A, an inhibitor of aspartic peptidases, to determine if any observed activity was from aspartic peptidases.
In each of the examples shown in FIGS. 1-3, native bovine PAGs were bound to pepstatin-agarose matrix at pH 7 or 7.5, washed and eluted by increasing osmolarity (up to 1 M NaCl), including detergent (1% Triton X-100) and increasing the pH of the elution buffer. Different PAGs bind with differing affinities to the aspartic peptidase inhibitor, pepstatin A, and it is possible to isolate different members of the family by systematically altering binding and elution conditions (e.g. Green et al., 2005; Wooding et al., 2005). The differences in activity and pH optima for each of these preparations are illustrated in FIGS. 1-3. […]

The test system of assay [2] is fluorescent cathepsin D/E substrate. As to the kind of experiment: proteolytic activity of purified recombinant PAGs as a function of pH. Particulars: 20 μM substrate; for pH of maximal activity: buffers of varying pH with 100 mM NaCl, FIGS. 5A, 5B. The text has this: FIGS. 5A and 5B. The activity of purified recombinant bovine PAG-2 and -12 (FIG. 5A), and porcine PAG-2 (FIG. 5B), against a fluorescent cathepsin D substrate as a function of pH. In FIG. 5A, triangles represent boPAG-2 activity, which is at a maximum at pH 4, while squares represent boPAG-12 activity. In both panels (A and B), each activity point is normalized by the maximum activity (relative fluorescence units) of each peptidase at its optimal pH. The percent activity is shown on the Y-axis and the pH of respective buffers on the X-axis. The error bars represent standard deviation in results obtained from duplicate reads from two separate experiments.
Recombinant boPAG-2 and -12 and recombinant porcine PAG-2 (poPAG-2) were tested for proteolytic activity by incubation with 20 μM fluorescent cathepsin D/E substrate (Peptides International, as above) in buffers of varying pH containing 100 mM NaCl. Raw fluorescence data was transformed to % relative activity, with the highest value set at 100%. Maximal activity for boPAG-2 was at pH 4, while maximal activity for boPAG-12 and poPAG-2 was at pH 3.5 (FIGS. 5A and 5B).

In assay [3] the test system is cathepsin D/E FRET substrate. Briefly: anti-FLAG immuno-trap protease assay of recombinant candidate bovine PAGs at pH 3-7. As to the method: FIGS. 6A and 6B. Relative protease activity, as measured by fluorescence, from an immuno-trap protease assay of several recombinant PAGs isolated with an anti-FLAG monoclonal antibody. The reactions were performed under several pH conditions simultaneously (pH 2.5 to 7.0). Identical concentrations of each recombinant PAG lysate were added to the wells.
Table 5 and FIGS. 6A and 6B show results of protease activity (fluorescence) from immuno-trap assays of several additional recombinant bovine PAGs that were expressed as fusion proteins with a FLAG epitope tag. The PAGs were immobilized in the wells of an ELISA plate by using anti-FLAG in an immuno-protease assay format (as described above) and were analyzed for their proteolytic activity against the cathepsin D/E FRET substrate at pH increments ranging from 3-7. […] This protein was used as a negative control in the assay to establish the baseline for background fluorescence.

With `CC(C)CC(=O)N[C@H](C(=O)N[C@H](C(=O)N[C@@H](CC(C)C)[C@@H](O)CC(=O)N[C@@H](C)C(=O)N[C@@H](CC(C)C)[C@@H](O)CC(=O)O)C(C)C)C(C)C` [pepstatin A] (Isovaleryl-VV[Sta]A[Sta]-OH), in assay [1], the “inhibition of peptidase activity” value is recorded as “inhibited”.

B1: poPAG-2: recombinant porcine PAG-2, FLAG-tagged (protein)
chain: DYKDDDDKLVMIPLTKVKSVRESLREKGLLKNFLKEHPYNMIQNLLSKNSSHVQKFSYQPLRNYLDMVYVGNISIGTPPQQFSVVFDTGSSDLWVPSIYCKSKACVTHRSFNPSHSSTFHDRGKSIKLEYGSGKMSGFLGQDTVRIGQLTSTGQAFGLSKEETGKAFEHAIFDGILGLAYPSIAIKGTTTVIDNLKKQDQISEPVFAFYLSSDKEEGSVVMFGGVDKKYYKGDLKWVPLTQTSYWQIALDRITCRGRVIGCPRGCQAIVDTGTSMLHGPSKAVAKIHSLIKHFEKEYVVPCNARKALPDIVFTINNVDYPVPAQAYIRKYVVPCNARKALPDIVFTINNVDYPVPAQAYIRKNANNNRCYSTFEDIMDTLNQREIWILGDVFLRLYFTVYDEGQNRIGLAQAT
Take B1: the “pH of maximal activity” value in assay [2] came out at 3.5. The “activity at pH 2.5” value in assay [2] (pH 2.5, 100 mM NaCl) is reported as “showed activity”.

B2: boPAG-2: recombinant bovine PAG 2 expressed in a baculovirus expression system as FLAG-tagged fusion protein (protein)
chain: DYKDDDDKIVILPLKKMKTLRETLREKNLLNNFLEEQAYRLSKNDSKITIHPLRNYLDTAYVGNITIGTPPQEFRVVFDTGSANLWVPCITCTSPACYTHKTFNPQNSSSFREVGSPITIFYGSGIIQGFLGSDTVRIGNLVSPEQSFGLSLEEYGFDSLPFDGILGLAFPAMGIEDTIPIFDNLWSHGAFSEPVFAFYLNTNKPEGSVVMFGGVDHRYYKGELNWIPVSQTSHWQISMNNISMNGTVTACSCGCEALLDTGTSMIYGPTKLVTNIHKLMNARLENSEYVVSCDAVKTLPPVIFNINGIDYPLRPQAYIIKIQNSCRSVFQGGTENSSLNTWILGDIFLRQYFSVFDRKNRRIGLAPAV
As for B2, the “pH of maximal activity” value in assay [2] was 4.

B3: tsh (control): recombinant equine-TSH-beta expressed and purified in the same manner as the PAGs, negative control (protein)
chain: FCIPTEYMMHVERKECAYCLTINTTICAGYCMTRDINGKLFLPKYALSQDVCTYRDFMYKTVEIPGCPDHVTPYFSYPVAVSCKCGKCNTDYSDCIHEAIKANYCTKPQKSYVVEFSI
As to B3, the proteolytic activity result in assay [3] (anti-FLAG immuno-trap, pH 3-7, compared with TSH-beta control) was “does not have proteolytic activity”. The “Relative fluorescent product release, pH 3.0” value in assay [3] (pH 3.0, immobilized with anti-FLAG) is 38349. For the same molecule, the “Relative fluorescent product release, pH 4.0” value in assay [3] (pH 4.0, immobilized with anti-FLAG) was determined as 33908. For the same molecule, the “Relative fluorescent product release, pH 5.0” value in assay [3] (pH 5.0, immobilized with anti-FLAG) amounted to 34996.5. Further, in assay [3] (pH 6.0, immobilized with anti-FLAG), the “Relative fluorescent product release, pH 6.0” value came out at 28222.5. Moreover, in assay [3] (pH 7.0, immobilized with anti-FLAG), the “Relative fluorescent product release, pH 7.0” value amounted to 26590.5.
